Literature values, collected in paper PMC3529988.

Biological target: E2F TD (Homo sapiens) (UniProt Q01094)
Chain of UniProt Q01094 (Q01094 368-437): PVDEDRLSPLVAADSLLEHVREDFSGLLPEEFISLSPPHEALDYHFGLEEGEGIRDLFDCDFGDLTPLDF

Kd: 50 nM
Substance: Rb pocket (from UniProt P06400)
